# From patent US20100209400A1, “TAK1-Mediated Regulation of Osteogenesis” (priority 2003, published 2010)
# Columns and labels:
# C3H10T½-BMP2 cells [1] = experiment: FACS for apoptosis and cell cycle progression; format: cell-based, murine; conditions: CDDP 25 μM, TAK1 variants stably co-expressed; for apoptosis (subG0-G1 peak): etoposide 10 μM
# Description: Exponentially growing cells were harvested 48 hours post-seeding or at different stages at and after confluence by trypsinization and fixation with 80% methanol. Cellular DNA content was determined by staining cells with RNAseS/propidium iodide, and measuring fluorescence in a Becton Dickinson FACScan. For each cell population, 10,000 cells were analyzed, and the proportions in G0/G1, G2/M and S-phases were estimated by using Modfit cell cycle analysis software. Information on cell size (e.g. due to differentiation) and complexity could be obtained from forward and side scatter data following evaluation of relevant cell populations.
# To determine whether TAK1-mediated effects in the assay systems above resulted from apoptosis, C3H10T½-BMP2 cells co-expressing TAK1 variants were assayed by FACS for apoptosis and cell cycle progression.
# SMAD proteins = experiment: Co-immunoprecipitation of TAK1 variants with SMADs from HEK293T cells; format: binding; conditions: SMAD7, R-SMADs 1-3, 5, SMAD4
# Description: (§1) Co-immunoprecipitation were conducted as described (Verschueren K et al, J. Biol. Chem, 274: 20489-20498, 1999). Human embryonic kidney (HEK) 293T cells were plated at 3×10^6 cells/petri dish (55 square centimeters (cm^2)) one day prior to transfection. For transient transfections, 1 μg of Flag-tagged expression plasmid and 2 μg of Myc- or HA-tagged expression plasmids were utilized. DNA content was normalized with empty vector. Transfections were performed with FuGENE6 (Roche, Mannheim). Roughly 36 hours post-transfection cells were dislodged from dishes and harvested by centrifugation. Pellets were shock frozen in liquid nitrogen. […] reactions were performed in lysis buffer. Cell extracts and immunoprecipitates were analyzed by SDS-PAGE and Western blot analysis using the appropriate antibodies.
# Toward this end, co-immunoprecipitation with various combinations of wild-type TAK1 (TAK1wt) and R-SMADs, either in a latent form or post-activation by constitutively active BMP type I receptor (ALK6ca, BMPR-IB) or activin type I receptor ALK4ca (ActR-IB), I-SMADs and SMAD4, were conducted. […] TAK1 interaction with R-SMADs was typically stronger in the absence of constitutively active receptors (the exception being SMAD3), which may reflect a reduced affinity for activated, i.e. phosphorylated R-SMADs by TAK1, except with SMAD3.
# SMAD proteins only bind TAK1 with an intact or a constitutively active kinase domain. Different TAK1 variants such as TAK1wt, TAK1ca, TAK1dn and two deletions, TAKDN (lacking amino acids 1-300; FIG. 1a) and TAKDC (lacking 301-606; FIG. 1a), respectively, were tested for their ability to bind to R-SMADs (using SMAD1 as a representative) or I-SMAD6 and I-SMAD7.
# [2] = system: p38 MAPK and JNK phosphorylation; experiment: p38 MAPK and JNK phosphorylation in transfected cells; format: cell-based; conditions: data not shown
# Description: Among nine tissues examined, both TAK1 long and short forms were expressed in every tissue assessed apart from kidney (FIG. 1B). TAK1 tissue-specific expression levels varied, with minimal lung expression detected. Both TAK1 splice variants were comparably expressed in the mesenchymal progenitor line, C3H10T½ (see FIG. 8A). TAK1 mutants generated from the long transcript form included dominant-negative (TAK1dn) and constitutively active (TAK1ca) variants as compared to wild-type control (TAK1wt).
# C3H10T½-BMP2 cells [3] = experiment: Histological analysis and alkaline phosphatase staining of C3H10T½-BMP2 cells; format: cell-based, murine
# Description: Murine C3H10T½ progenitor cells were cultured in high-glucose DMEM containing 10% fetal calf serum, as described (Ahrens Met al, DNA Cell Biol, 12: 871-880, 1993). Cells were stably transfected with expression plasmids encoding wt TAK1, dominant-negative (dn) or constitutively active (ca) TAK1 in pMT7T3-f1 using DOSPER™ according to the manufacturer's protocol (Roche, Mannheim) and a selection plasmid conferring puromycin resistance (pBSpacDp: parental C3H10T½ cells) or G418-resistance (pAG60: BMP2-expressing C3H10T½ cells). Individual clones were picked, propagated, and tested for recombinant expression of TAK1-variants by RT-PCR using a vector-specific and a gene-specific primer. Control cell lines (empty to expression vector) were established at the same time. Cells were plated at a density of 5,000 cells/cm^2. After reaching confluence (arbitrarily termed day 0) ascorbic acid (50 microgram/milliliter (μg/ml)) and b-glycerophosphate (10 millimolar (mM)) were added.
# (§2) Proteoglycan-secreting chondrocytes were identified by staining with Alcian Blue at pH 2.5 (Alcian Blue 8GS, Roth, Karlsruhe).
# Osteoblast formation was evaluated as a measure of TAK1 influence on osteo-/chondrogenic differentiation potential. C3H10T½-BMP2 cells co-expressing TAK1 and its molecular variants were assessed histologically for alkaline phosphatase (ALP) activity (FIG. 8C), which is indicative of osteoblast differentiation.
# C3H10T½-BMP2 cells [4] = experiment: Semi-quantitative RT-PCR of osteo-/chondrogenic marker genes and Alcian Blue staining; format: cell-based, murine; conditions: co-expression in C3H10T½-BMP2 cells
# Description: as §2
# Total cellular RNA was prepared by TriReagent LS according to the manufacturer's protocol (Molecular Research Center Inc., Ohio, Miss.). Five μg of total RNA was reverse transcribed with oligo-dT primers and cDNA aliquots were subjected to PCR. RT-PCR was normalized by the transcriptional levels of HPRT. The primer pairs and PCR conditions used to evaluate osteo-/chondrogenic differentiation, for collagen Ia1, collagen IIa1, osteocalcin, and the PTH/PTHrP-receptor have been described (Hoffmann A et al, J. Cell Sci 115: 769-781, 2002).
# [5] = system: SMAD1-mediated transcription; experiment: SMAD1-SBE CAT reporter assay; format: cell-based, human; conditions: dose-dependent, following activation by constitutively active receptors
# Description: Reporter assays using the GALA DNA binding domain fused to various forms of SMAD proteins were performed as described (Meersseman, G at al, Mech. Dev, 61: 127-140, 1997). Briefly, 420 nanograms (ng) DNA was transfected/well (24 well-plate seeded with 1×10^5 HEK 293T cells) one day prior to transfection. The DNA mix included a plasmid expressing β-galactosidase under the control of the RSV promoter, for normalization purposes and a reporter plasmid encoding firefly luciferase under the control of 5 GAL4 binding sites upstream of a minimal TATA box (pG5 luc, Promega, Mannheim) and combinations of effector plasmids. The DNA content was normalized with empty vector.
# Cells were harvested and lysed. β-Galactosidase (β-gal) activity was measured via the luminescent β-galactosidase kit II (Clontech, Palo Alto, Calif.), and luciferase activity via the luciferase assay system (Promega, Mannheim). All results are expressed as luciferase activity normalized with β-gal values (“relative luciferase activities”). Reporter assays with the SMAD1 DNA binding element SBE-9 (GCCG×9) (Kusanagi K et al, Mol Biol Cell 11: 555-565, 2000) cloned into pCAT5 vector (Boshart M et al, Gene 110: 129-130, 1992) were performed similarly except that cells were lysed in CAT lysis buffer. CAT enzyme was measured via CAT ELISA assay and β-gal via chemiluminescent β-gal reporter gene assay (Roche, Mannheim). […]
# SMAD1:SMAD4 interaction = target: T1, SMAD1:SMAD4 interaction (Homo sapiens, UniProt Q13485+Q15797); experiment: Co-immunoprecipitation of SMAD1:SMAD4 hetero-oligomerization in HEK293T cells; format: cell-based; conditions: receptor-mediated hetero-oligomerization
# T1 construct: expressed in transfected cells; host or cells: HEK293T
# T1 sequence (Q15797 whole entry): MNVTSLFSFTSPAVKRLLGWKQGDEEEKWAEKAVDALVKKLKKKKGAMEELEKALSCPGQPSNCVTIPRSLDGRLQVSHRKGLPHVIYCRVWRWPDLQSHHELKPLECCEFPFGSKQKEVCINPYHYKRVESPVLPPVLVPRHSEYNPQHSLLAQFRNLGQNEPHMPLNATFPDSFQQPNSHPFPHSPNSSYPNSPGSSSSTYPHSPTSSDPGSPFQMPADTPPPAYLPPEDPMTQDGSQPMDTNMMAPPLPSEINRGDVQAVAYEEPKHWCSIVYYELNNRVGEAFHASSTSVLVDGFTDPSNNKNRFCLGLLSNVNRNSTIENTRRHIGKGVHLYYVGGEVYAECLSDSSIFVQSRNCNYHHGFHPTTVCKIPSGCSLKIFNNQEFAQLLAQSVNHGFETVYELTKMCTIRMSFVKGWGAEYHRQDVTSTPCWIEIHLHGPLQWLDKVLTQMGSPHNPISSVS
# T1 sequence (Q13485 whole entry): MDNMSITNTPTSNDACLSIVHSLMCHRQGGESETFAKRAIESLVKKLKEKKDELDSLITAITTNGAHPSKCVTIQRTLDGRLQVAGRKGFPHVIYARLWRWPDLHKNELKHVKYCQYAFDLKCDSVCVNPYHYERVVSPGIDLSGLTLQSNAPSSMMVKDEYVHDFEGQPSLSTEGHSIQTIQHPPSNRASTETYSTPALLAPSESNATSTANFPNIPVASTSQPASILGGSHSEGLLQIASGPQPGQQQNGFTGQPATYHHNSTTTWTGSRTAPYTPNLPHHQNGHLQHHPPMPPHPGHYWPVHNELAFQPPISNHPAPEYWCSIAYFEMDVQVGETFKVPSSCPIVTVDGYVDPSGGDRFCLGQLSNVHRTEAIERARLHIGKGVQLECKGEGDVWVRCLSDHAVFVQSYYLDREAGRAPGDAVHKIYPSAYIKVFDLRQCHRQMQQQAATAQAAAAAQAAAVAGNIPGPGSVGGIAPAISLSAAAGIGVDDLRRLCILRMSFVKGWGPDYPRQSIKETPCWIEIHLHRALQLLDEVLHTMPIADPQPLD
# Description: as §1
# R-SMAD hetero-oligomerization with SMAD4 and subsequent accumulation in the nucleus is essential for biological activity.
molecule,measurement,setting,value
"[NH2][Pt]([NH2])([Cl])[Cl] [CDDP, cisplatin]",cell cycle effect,C3H10T½-BMP2 cells [1],arrested maturation in the G2-M phase
same,apoptosis (subG0-G1 peak),C3H10T½-BMP2 cells [1],did not cause measurable apoptosis
COc1cc([C@@H]2c3cc4c(cc3[C@@H](O[C@@H]3O[C@@H]5CO[C@@H](C)O[C@H]5[C@H](O)[C@H]3O)[C@H]3COC(=O)[C@H]23)OCO4)cc(OC)c1O [etoposide],apoptosis (subG0-G1 peak),C3H10T½-BMP2 cells [1],induced a significant subG0-G1 peak
"TAKDN: TAK1 Δ1-300 N-terminal deletion mutant (protein, left off: small tags and cut ends, TAK1 Δ1-300 N-terminal deletion mutant) PCQYSDEGQSNSATSTGSFMDIASTNTSNKSDTNMEQVPATNDTIKRLESKLLKNQAKQQSESGRLSLGASRGSSVESLPPTSEGKRMSADMSEIEARIVATAAYSKPKRGHRKTASFGNILDVPEIVISGNGQPRRRSIQDLTVTGTEPGQVSSRSSSPSVRMITTSGPTSEKPARSHPWTPDDSTDTNGSDNSIPMAYLTLDHQLQPLAPCPNSKESMAVFEQHCKMAQEYMKVQTEIALLLQRKQELVAELDQDEKDQQNTSRLVQEHKKLLDENKSLSTYYQQCKKQLEVIRSQQQKRQGTS",binding of TAK1 variant to SMAD proteins (co-immunoprecipitation),SMAD proteins,unable to bind significantly
"TAK1wt: wild-type murine TAK1 (long splice form) cloned from kidney, expressed from plasmid in transfected cells (protein, left off: small tags and cut ends, wild-type murine TAK1 (long splice form) cloned from kidney, expressed from plasmid in transfected cells) MSTASAASSSSSSSASEMIEAPSQVLNFEEIDYKEIEVEEVVGRGAFGVVCKAKWRAKDVAIKQIESESERKAFIVELRQLSRVNHPNIVKLYGACLNPVCLVMEYAEGGSLYNVLHGAEPLPYYTAAHAMSWCLQCSQGVAYLHSMQPKALIHRDLKPPNLLLVAGGTVLKICDFGTACDIQTHMTNNKGSAAWMAPEVFEGSNYSEKCDVFSWGIILWEVITRRKPFDEIGGPAFRIMWAVHNGTRPPLIKNLPKPIESLMTRCWSKDPSQRPSMEEIVKIMTHLMRYFPGADEPLQYPCQYSDEGQSNSATSTGSFMDIASTNTSNKSDTNMEQVPATNDTIKRLESKLLKNQAKQQSESGRLSLGASRGSSVESLPPTSEGKRMSADMSEIEARIVATAAYSKPKRGHRKTASFGNILDVPEIVISGNGQPRRRSIQDLTVTGTEPGQVSSRSSSPSVRMITTSGPTSEKPARSHPWTPDDSTDTNGSDNSIPMAYLTLDHQLQPLAPCPNSKESMAVFEQHCKMAQEYMKVQTEIALLLQRKQELVAELDQDEKDQQNTSRLVQEHKKLLDENKSLSTYYQQCKKQLEVIRSQQQKRQGTS",biological activity as evidenced by p38 MAPK and JNK phosphorylation,[2],biologically active
same,growth phenotype of C3H10T½-BMP2 cells expressing the TAK1 variant,C3H10T½-BMP2 cells [3]; after confluence,C3H10T½ wild-type phenotype
same,osteoblast-like cell formation / ALP activity,"C3H10T½-BMP2 cells [3]; compared to C3H10T½-BMP2 cells, 10 days post-confluence",interfered with osteoblast-like cell formation
same,binding of TAK1 variant to SMAD proteins (co-immunoprecipitation),SMAD proteins,able to interact
same,"expression of osteogenic marker genes (osteocalcin, PTH/PTHrP receptor)",C3H10T½-BMP2 cells [4],down-regulated expression of osteogenic genes
same,apoptosis (subG0-G1 peak),C3H10T½-BMP2 cells [1],did not induce apoptosis
same,maximum reduction of SMAD1 transcription (CAT reporter),[5],30%
same,SMAD1:SMAD4 interaction,SMAD1:SMAD4 interaction,enhanced
